Data published in publication PMC4933900, “Defined enzyme cocktail from the anaerobic fungus Orpinomyces sp. strain C1A effectively releases sugars from pretreated corn stover and switchgrass” (Scientific Reports, 2016).

Experiments:
EG5 = biological target: T1, EG5 (Pecoramyces ruminantium, UniProt A0A1B1JH60); experiment: endoglucanase assay, CellG3 kit, 2-chloro-4-nitrophenol release; type: biochemical; details: printed BDL (below detection limit 500 nM); Lineweaver-Burk extrapolation 0.000003999 mM
T1 construct: whole CDS (nt 1-1251 of transcript; protein length 417) cloned; codon-optimised synthetic gene in pET28a(+) NdeI/XhoI, E. coli, purified
Text: endoglucanase assay, CellG3 kit, 2-chloro-4-nitrophenol release on EG5

[1] = substrate: O=[N+]([O-])c1ccc(O[C@@H]2OC[C@@H](O)[C@H](O)[C@H]2O)cc1; experiment: beta-xylosidase assay, p-nitrophenol release; type: biochemical, Pecoramyces ruminantium; details: 0.1 M sodium acetate buffer, 15 min; pH and temperature of kinetics not stated
purified protein = substrate: O=[N+]([O-])c1ccc(O[C@@H]2O[C@H](CO)[C@@H](O)[C@H](O)[C@H]2O)cc1; experiment: purified protein; details: 0.1 M sodium acetate buffer, 15 min; pH and temperature of kinetics not stated
[2] = substrate: O=[N+]([O-])c1ccc(O[C@@H]2O[C@H](CO)[C@@H](O[C@@H]3O[C@H](CO)[C@@H](O)[C@H](O)[C@H]3O)[C@H](O)[C@H]2O)cc1; experiment: cellobiohydrolase assay, p-nitrophenol release; type: biochemical, Pecoramyces ruminantium; details: 0.1 M sodium acetate buffer, 15 min; pH and temperature of kinetics not stated
[3] = substrate: O=[N+]([O-])c1ccc(O[C@@H]2O[C@H](CO)[C@@H](O[C@@H]3O[C@H](CO)[C@@H](O[C@@H]4O[C@@H]5COC(c6ccccc6)O[C@H]5[C@H](O)[C@H]4O)[C@H](O)[C@H]3O)[C@H](O)[C@H]2O)c(Cl)c1; experiment: endoglucanase assay, CellG3 kit, 2-chloro-4-nitrophenol release; type: biochemical, Pecoramyces ruminantium; details: pH and temperature of kinetics not stated
Text: endoglucanase assay, CellG3 kit, 2-chloro-4-nitrophenol release on Cel48

Question: `O=[N+]([O-])c1ccc(O[C@@H]2O[C@H](CO)[C@@H](O[C@@H]3O[C@H](CO)[C@@H](O[C@@H]4O[C@@H]5COC(c6ccccc6)O[C@H]5[C@H](O)[C@H]4O)[C@H](O)[C@H]3O)[C@H](O)[C@H]2O)c(Cl)c1` (some centres unmarked) [CellG3] was tested. Which Km (EG5) did it give?
Answer: < 0.5 µM

B1: BGL3 (Pecoramyces ruminantium) (protein)
chain: TWEEADAKAREWCSDLTNEEKIALITGRENMTGVCVGSIDPIERKGFKGLCLQDGPAGVRFAKGTATSWQASINTAATFDRTLLRKVGEAQGNEFYQRGINVALAPSMGIQRAPAAGRIFESYGEDPFYVGQCGLEVLKGIQSQGVIANAKHYIANDQENNRGASTSNVPEQALWEVYMEPFYRTVVEGEAGTVMASYNAINGTYSTQNKRLLTDYLKGKLGFKGFVMSDWWAIFDVEKSFGNGTDMNMPGGKYWGPDYVGDSFWGEHIQECIDNGVFPQERLDDAVLRIIRTLYKLDQMDDYPEVNLYVDTNTKENAALNRKVGADSNVLLKNADNILPIKKSKKVKKIAVIGKDSMPPTLCEDMKCANGTLPLGWGSGTTDFKYVVDPLSAITKRAKKSKISVVSYGEDDAKKAAKVAKKADVAIVFVQADSGEEYITVEGNAGDRLNLDLWHGGNELIEAVAAVNKNTIVVIHAPGPVNVPFLDKVKGIIFAGLPGQETGNAITDVLFGDVNPSGHLPYTWAPREDYPTDVKYEPEYPDGGEKMTVYDYNEGLFVGYRWFDKKEIEPTFAFGYGLSYTTFEFSDLEATMEDDGLYVSLTVTNTGKVAGAAVPMIFLSFPESVKDYPIRLFKGFDKVMLKAGESKETTIFIDAHGLSYFDVEKMEYVRPKDGEFTVYAGSNARDLPLNVKVLANGDEI
notes: about residues 22-721; pET28a(+) NdeI/XhoI, codon-optimised, E. coli, purified
Question: What does the source list for B1?
Answer: Km [1]: 50600 µM; Vmax [1]: 0.068 µmol/min/mg; Km (purified protein): 275 µM; Vmax (purified protein): 1.55 µmol/min/mg

B2: BGL1 (Pecoramyces ruminantium) (protein)
chain: IVKPAADAAADVASDAEVVASDEENPLDNGEDSADDTPKGKLPSDFKWGAATAAYQVEGAWNEEGRGESVWDHFTHLYPKNVESGDRSNKDSTNGNVACDSYHKFDEDIKMMKIMNANHYRFSISWSRLFPDGQAKKVDGEWNVNEAGAQYYDMVIDTLLDNDIIPLATLYHWDLPYALHEKYGGWLDYHSQFDFAKYAEFCFERYGDRVKGWITINEPWVNCVAGYKNGPGKAPYRCTGEAPRKLANDTTGLDLEGGCSYEIGPSQYTKDSEVLPANRPPQKLEDVWCSHNILLGHAQAVKVYREKFQKEQKGLIGITIDGEAQIPWEEPGMSEEEYENNKKYANLAAEFRIGWYSDPVMFGDYPESVKQRNGKDMPVFTDEEKKLLKGSSSDFLGWNTYTSHWAAQVKNEDGSYVEPPTDEEASYDNSKRDMWDDNCKGRGDGWTCIPPTLGSQAGSSWNTKYGPTIRVGLNWFSKRYEGIIKNGIIITENGCAQPNYKVSRANDQVTLDYWKSIGKEEFADTYDEDIIEDESDLEGTLIHDTYRIDWYKQYLENLRLAYVEDGVDVRGYMAWSLVDNFEWENGYETRFGMTYIDFYNDKDLKRVPKDSLTFLGQWYLDNVEQE
Question: For B2, which Km (purified protein) is on record?
Answer: 164 µM

Question: And the Vmax (purified protein)?
Answer: 5.41 µmol/min/mg

B3: Cel6A (Pecoramyces ruminantium) (protein)
chain: PKSSGGSTTTPVNPGDVDATPGDQLTLSGNPFSGVEFYINPYYVAEVDGAIAQMTDSSLKAKAEKMKTYSNAIWLDTIKNMNSWLESNLKGALAQQTGSKKVLTVFVVYDLPGRDCHALASNGELLANSSDAQRYKTEYIDVIEKHLKTYKSQPVALIVEPDSLANLVTNLESTPACRDSESYYLDGHAYLIKKLGVLPHVAMYLDIGHAFWLGWDDNREKAGKVYAKVIQSGSPGKVRGFTDNVSNYTPWEDPTLSRGPDTEWNPCPDEKRYLEAMHKDFKAAGISSVYFVSDTSRNGHKTDRKHPGEWCNQTGVGIGARPQASPISGMDYLDAFYWIKPLGESDGTSDESAVRFDGYCGHETAMKPAPEAGQWFQKHFEQGLENANPPL
notes: whole CDS (nt 2-1177 of transcript; protein length 391) cloned; codon-optimised synthetic gene in pET28a(+) NdeI/XhoI, E. coli, purified
Question: What does the source list for B3?
Answer: Km [2]: 228 µM; Vmax [2]: 3.27 µmol/min/mg

B4: EG5 (Pecoramyces ruminantium) (protein)
chain: TLLGLAIIGTKAMRNISSKELVKELTIGWSLGNTLDATCFETLNYAKDQTASETCWGNVKTTQELYYKLNDLGFNTFRIPTTWSGHFGDGPDYKISEAWMKRVHEIVDYALNADGYAILNIHHETWNHAFQKNLESAKKILVAIWKQIAAEFADYDEHLIFEGMNEPRKVGDAAEWNGGDYEGWNFVNEMNDLFVKTIRATGGNNALRHLMIPTYAACVNDGAINNFRFPSGDDKVIVSLHSYSPYNFALNNGAGAISNFNDGSEIDWVMNTINSSFISKGIPVIIGEFGAMNRNNEADREKWAEYYIKKATSLGIPCVIWDNGYFEGEGERFGLIDRKSLNVVYPRLVNGLMKGLGDKKPKTTKVRTTTTTTIQVQPTNNNDCFSTKLGYDCCNGCEVFYTDNDGKWGVENGNWCG
Question: B4 was tested. Which Km (purified protein) did it give?
Answer: 84000 µM

Question: And the Vmax (purified protein)?
Answer: 0.45 µmol/min/mg

B5: XYL11 (Pecoramyces ruminantium) (protein)
chain: GSGTSGTADFPYAKVYIGNQQNQPSYQPTTTRNNSQPTSPATGGSSGEICSASGHSGESTKVTSNKVGSINGIGYELWADSGNNSATFYSDGSFSCTFQNAKDYLCRSGLSFDSTKTHSQIGHLYADFKLVKQGISNVDYSYVGIYGWTRSPLVEFYIVDNWLSQYRPGDWVGNKKHGDFTIDGAQYTVYENTRTGPSIDGNTQFKQYFSIRKTARDCGTIDITAHFQQWEKLGMTMGKMHEAKVLGEAGSNGSGTSGTADFPYAKVYTGS
Question: Which Km (purified protein) does the source give for B5 here?
Answer: 216 µM

Question: What about the Vmax (purified protein) of the same molecule?
Answer: 0.28 µmol/min/mg

B6: Cel48 (Pecoramyces ruminantium) (protein)
chain: MPSIRTALTLLGASAVIAAPTKRANDAYAQRVIDTYNAVTGNGSYRSDYFSPENVPYHSVETMMVEAPDQGHESVSETYSFWVWLEAINGKMTGNYDGVNTAWSYLEKHIIPDSKNQPGMSRYNSSSPATYAPEDDDITNYPSKLIFQDGLVGQDPIAAELQQAYGTWDIYAMHWIIDGDNWYGYGQQGDGTTKPSFINTFQRGPSESAWKTVPHPCWEEFKWGGRNGFLDLFTVDNSYAKQWRYTAAPDADARAIQAAYFAYIWAKEDGQNLSSLAGKAAKLGDYLRYAHYDKYFKKIGNCIGYQQCQAGSGKNSAHYLISWYFSWGGGLQGDWSWRIGSSHTHTGYQNPLAAWVLSTESAFKPKGSTAVKDWATSLDRQLELFRWLQAAEGCIAGGATNSWQGHYAQPPSDITSFYGMYYDWQPVYHDPPSNNWTGMQGWGMERVCSLYFLSGNEKAGKVCQDWAKWVKNNVRVNGSEVVHATNFSWSGNPDEWKPANFNKSGLNASLHGTVSTEGIDIGSLASIIKGLMWVSMKDGDQEGIDLAVQVMDAIEQYRDDHGYGVEEAREDYAKFNEEVYIPSGWTGKNAQGANIRNGVKFIDIRPKYKQDPDWPQIENFLNGGEAPRFTYHRFWAQTEIAVANGLISIYGLSDGSGVVPTKPGSCAAAIKAQGYKCCSANCEVVYTDADGDWGVENDEWCGCGGGEPECPAAITNQGYPCCSTCGTVYYTDGDGDWGVENGDWCGMPTDC
notes: whole CDS (nt 87-2342 of transcript; protein length 751) cloned; codon-optimised synthetic gene in pET28a(+) NdeI/XhoI, E. coli, purified
Question: Which Km [3] does the source give for B6 here?
Answer: 30100 µM

Question: What about the Vmax [3] of the same molecule?
Answer: 0.048 µmol/min/mg

Question: What about the Km [2] of the same molecule?
Answer: 8980 µM

Question: And the Vmax [2]?
Answer: 0.357 µmol/min/mg
